Changes are numbered by the printed parent chain. In names and notes the source's numbering stands.
B1: purine nucleoside phosphorylase (PNP) (Homo sapiens) (protein)
chain: MENGYTYEDYKNTAEWLLSHTKHRPQVAIICGSGLGGLTDKLTQAQIFDYGEIPNFPRSTVPGHAGRLVFGFLNGRACVMMQGRFHMYEGYPLWKVTFPVRVFHLLGVDTLVVTNAAGGLNPKFEVGDIMLIRDHINLPGFSGQNPLRGPNDERFGDRFPAMSDAYDRTMRQRALSTWKQMGEQRELQEGTYVMVAGPSFETVAECRVLQKLGADAVGMSTVPEVIVARHCGLRVFGFSLITNKVIMDYESLEKANHEEVLAAGKQAAQKLEQFVSILMASIPLPDKAS
B2: purine nucleoside phosphorylase (PNP) (Homo sapiens; E258D/L261A) (protein)
chain: B1 chain with E258D, L261A

Substrate: Nc1nc2c(ncn2[C@@H]2O[C@H](CO)[C@@H](O)[C@H]2O)c(=O)[nH]1
Experiment: purified protein
Format: biochemical, Homo sapiens
[1] = phosphate catalytic site (His257, Asn243, Glu201)

| Protein | Km [1] | kcat [1] | kcat/Km [1] | Km (phosphate catalytic site) | kcat (phosphate catalytic site) | kcat/Km (phosphate catalytic site) |
| --- | --- | --- | --- | --- | --- | --- |
| B1 | 63 ± 8 µM | 8.8 ± 0.5 s⁻¹ | 140000 M⁻¹ s⁻¹ |  |  |  |
| B2 |  |  |  | 73 ± 13 µM | 4.2 ± 0.4 s⁻¹ | 58000 M⁻¹ s⁻¹ |
